# According to the supplement of paper PMC11780869:
# Tested on: Bacillus subtilis
# Experiment: cleaved RNA product abundance (RNA/gDNA barcode ratio) relative to median wild-type variant (ratio to wild type); higher = more accumulation of the downstream cleavage product
# How it was run: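 B. subtilis strains with chromosomally integrated reporter mRNAs (truncated aprE or tetM) holding barcoded, mutagenized RNase Y cleavage-site windows grew in LB at 37°C from OD600 0.0003 to 0.3. Cleaved product abundance is each construct's RNA:gDNA barcode ratio, scaled to the median construct with the unmutated site. It came from sequencing barcodes of gel-selected, reverse-transcribed cleaved RNA and of genomic DNA.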
# [1] = experiment (reporter, strain, medium): exp 8a: truncated aprE reporter, strain BJT201 with 2% xylose (RNase J1 expressed), cleavage site: glnRA (positions -5 to +31 mutated)
# [2] = experiment (reporter, strain, medium): exp 2b: truncated aprE reporter, strain BJT200, cleavage site: cggR-gapA (positions -7 to +36 mutated)
# [3] = experiment (reporter, strain, medium): exp 4a: truncated aprE reporter, strain BJT201 with 2% xylose (RNase J1 expressed), cleavage site: cggR-gapA (positions -7 to +36 mutated)
Sequence,cleaved RNA product abundance [1],cleaved RNA product abundance [2],cleaved RNA product abundance [3],other results
CGACATGTCCCGCTTCTTTCATTATTCCGTAAGCGACTGTTTTGATATATACATTTACCTTTTAAGAGGGGGAAT,0.359,–,–,–
ACAGACGAAGGAGCCGCAAAAAAGTTATTAAGGGATGAATAATCCCTCAAAATAAATATCTCTCACTTATTTAAA,–,0.349,0.376,–
ACAGACGAAGGAGCCGCAAAGAAGTTATTAAGGGATCAATAATACCTCAATATAAATATCTCTCACTTATTTAAA,–,–,0.146,–
ACAGACGAAGGAGCCGCAAAGAAGTTATTAAGGGATGTATAATACCTCAATATAAATATCTCTCACTTATTTAAA,–,0.139,0.103,–
ACAGACGAAGGAGCCGCAAAGAAGTTATTAAGGGAAGACTAATCCCTCAATATAAATATCTCTCACTTATTTAAA,–,–,0.452,–
CGACATGTCCCGCTTCTTTCATTAATCCGTTAGCAACTGTTTGGCTATATACAATTACCTTTTAAGAGGAGGAAT,0.279,–,–,–
ACAGACGAAGGAGCCGCAAAGAAGTTATTCAGGGATTAATAATCCCTCAATATAAATATCTCTCACTTATTTAAA,–,0.815,1,–
ACAGACGAAGGAGCCGCAAAGAAGTTATGAAGGGATGAATAATTCCTCAATATAAATATCTCTCACTTATTTAAA,–,0.274,0.316,–
ACAGACGAAGGAGCCGCAAAGAAGTTATTAAGGGATGAATAATCCCTCAATATAAGTATCTCTCACTTATTTAAA,–,0.397,0.42,"cleaved RNA product abundance (experiment (reporter, strain, medium): exp 6: tetM reporter, strain 168, cleavage site: cggR-gapA (positions -7 to +36 mutated)): 0.462"
ACAGACGAAGGAGCCGCAAAGAAGTTATTAACGGATGAATAATCCCTTAATATAAATATCTCTCACTTATTTAAA,–,0.98,0.671,–
ACAGACGAAGGAGCCGCAAAGAAGTTATTAAGGAATGAATAATCCCTCATTATAAATATCTCTCACTTATTTAAA,–,0.102,0.0579,–
CGACATGTCCCGCTTCTTTCATTAATCCATTAGCAACTGTTTTGCTATATACATTTACATTTTAAGAGGAGGAAT,0.688,–,–,–
ACAGACGAAGGAGCCGCAAAGAAGTTATTTAGGGATCAATAATCCCTCAATATAAATATCTCTCACTTATTTAAA,–,–,0.787,–
ACAGACGAAGGAGCCGCAAATAAGTTATTAAGTGATGAATAATCCCTCAATATAAATATCTCTCACTTATTTAAA,–,0.109,0.107,–
ACAGACGAAGGAGCCGCAAAGAAGTTATTAAGGGATGAATAATCACTTAATATAAATATCTCTCACTTATTTAAA,–,0.584,0.498,–
CGACATGTCCCGCTTCTTTCATTAATCCGTTAGCAACTGTTTTGCTATATATATTTACTTTTTAAGAGGAGGAAT,1.89,–,–,–
ACAGACGAAGGAGCCGCAAAGAAGTGATTAAGGGATGAAAAATCCCTCAATATAAATATCTCTCACTTATTTAAA,–,–,0.399,–
ACAGACGAAGGAGCCGCAAAGAAGTTATTAAGGGATGTATAATCCTTCAATATAAATATCTCTCACTTATTTAAA,–,–,0.922,–
ACAGACGAAGGAGCCGCAAAGAACTTATTAAGGGATGAATCATCCCTCAATATAAATATCTCTCACTTATTTAAA,–,–,0.36,–
CGACATGTCCCGCTTCTTTCATTAATCCGTTAGCAACTGGTTTGCTATATACATTTACTTTTTAAGAGGAGGAAT,0.918,–,–,–

Sequence,cleaved RNA product abundance [1],cleaved RNA product abundance [2],cleaved RNA product abundance [3],other results
CGACATGTCCCGCTTCTTTCATTACTCCGTTAGCAACTGTATTGCTATATACATTTACCTTTTAAGAGGAGGAAT,0.89,–,–,–
CGACATGTCCCGCTTCTTTCATTAATCCGTAAGCAACTGTTTTGCTATATACCTTTACCTTTTAAGAGGAGGAAT,0.207,–,–,–
ACAGACGAAGGAGCCGCAATGAAGTTATTAACGGATGAATAATCCCTCAATATAAATATCTCTCACTTATTTAAA,–,–,0.145,–
ACAGACGAAGGAGCCGCAAAGAAGTTATTAAGGGATGAATAATCTCTGAATATAAATATCTCTCACTTATTTAAA,–,–,0.634,–
CGACATGTCCCGCTTCTTTCATTAATCCGTTAGCAACTGAGTTGCTATATACATTTACCTTTTAAGAGGAGGAAT,0.261,–,–,–
CGACATGTCCCGCTTCTTTCATAATCCGTTAGCAACTGTTTTGCTATATACATTTACCTTTTAAGAGGAGGAATT,1.13,–,–,–
ACAGACGAAGGAGCCGCAAAGAAGTTATTAAGCGATGACTAATCCCTCAATATAAATATCTCTCACTTATTTAAA,–,–,0.0948,–
ACAGACGAAGGAGCCGCAAAGAAGTTATTAAATGATGAATAATCCATCAATATAAATATCTCTCACTTATTTAAA,–,–,0.162,–
CGACATGTCCCGCTTCTTTCATTAATCCGTTAGCAACTGTTTTGCTAGATACATTTACATTTTAAGAGGAGGAAT,0.424,–,–,–
ACAGACGAAGGAGCCGCAAAGAAGTAATTAAGGGATGCATAATCCCTCAATATAAATATCTCTCACTTATTTAAA,–,0.186,0.288,–
CGACATGTCCCGCTTCTTTCATTAATCCGTTAGCAACTGTTTTGGTATATACATTTACCTTTTAAGAGGAGGAAT,0.237,–,–,–
ACAGACGAAGGAGCCGCAAGGAAGTTATTAAGTGATGAATAATCCCTCAATATAAATATCTCTCACTTATTTAAA,–,–,0.149,–
ACAGACGAAGGAGCCGCAAAGAAGTTATTAAGCGATGAATAATCCCTCAATATTAATATCTCTCACTTATTTAAA,–,–,0.151,–
CGACATGTCCCGCTTCTTTCATTACACCGTTAGCAACTGTTTTGCTATATACATTTACCTTTTAAGAGGAGGAAT,1.39,–,–,–
ACAGACGAAGGAGCCGCAAAGAATTTATTAAGGGTTGAATAATCCCTCAATATAAATATCTCTCACTTATTTAAA,–,–,0.388,–
ACAGACGAAGGAGCCGCAAAGAAGTTATTAAGGAATGAATAATCCCTCAATATCAATATCTCTCACTTATTTAAA,–,–,0.0389,–
ACAGACGAAGGAGCCGCAAAGAAGTTATTAAGGGATGAATGATCCCACAATATAAATATCTCTCACTTATTTAAA,–,0.121,0.101,–
CGACATGTCCCGCTTCTTTCATTAATCCGTTAACAACTGTTTTGCTATATAGATTTACCTTTTAAGAGGAGGAAT,0.201,–,–,–
ACAGACGAAGGAGCCGCAAAGAAGTTTTTAAGGGATGAATAATCCCTAAATATAAATATCTCTCACTTATTTAAA,–,0.364,–,–
ACAGACGAAGGAGCCGCAAAGCAATTATTAAGGGATGAATAATCCCTCAATATAAATATCTCTCACTTATTTAAA,–,–,0.718,–

Sequence,cleaved RNA product abundance [1],cleaved RNA product abundance [2],cleaved RNA product abundance [3],other results
ACAGACGAAGGAGCCGCAAAGAAGTTATTAAGGGATGAATAAACCCTCAATATAAAAATCTCTCACTTATTTAAA,–,–,0.519,–
ACAGACGAAGGAGCCGCAAACAAGTTATTCAGGGATGAATAATCCCTCAATATAAATATCTCTCACTTATTTAAA,–,0.495,–,–
ACAGACGAAGGAGCCGCAAATAAGTTAGTAAGGGATGAATAATCCCTCAATATAAATATCTCTCACTTATTTAAA,–,0.305,0.549,–
ACAGACGAAGGAGCCGCTAAGAAGTAATTAAGGGATGAATAATCCCTCAATATAAATATCTCTCACTTATTTAAA,–,–,0.309,–
ACAGACGAAGGAGCCGCAAAGAAGTTATTAAGGAATGAATAATCCCTCACTATAAATATCTCTCACTTATTTAAA,–,0.0964,–,–
ACAGACGAAGGAGCCGCAAAGAAGTTATTAAGTTATGAATAATCCCTCAATATAAATATCTCTCACTTATTTAAA,–,0.0915,0.13,–
CGACATGTCCCGCTTCTTTCATTAATCCGTTAGTAACTGTTTTGCTATATACATTTACCTTTTAAGAGGAGGAAT,0.379,–,–,–
ACAGACGAAGGAGCCGCAAAGAAGTTATTAAGCGATAAATAATCCCTCAATATAAATATCTCTCACTTATTTAAA,–,0.0673,0.0716,–
ACAGACGAAGGAGCCGCAAAGAAGTTATTAAAGGATGAACAATCCCTCAATATAAATATCTCTCACTTATTTAAA,–,0.0976,0.207,–
CGACATGTCCCGCTTCTTTCATTAATCCGTTACCAACTGTTTTGCTATATACATTTACCGTTTAAGAGGAGGAAT,0.173,–,–,–
ACAGACGAAGGAGCCGCAAAGAAGTTATTCAGGGATGATTAATCCCTCAATATAAATATCTCTCACTTATTTAAA,–,0.532,–,–
ACAGACGAAGGAGCCGCAAAGCAGTTATTAAGGGATAAATAATCCCTCAATATAAATATCTCTCACTTATTTAAA,–,–,0.625,–
ACAGACGAAGGAGCCGCGAAGAAGTTATTAACGGATGAATAATCCCTCAATATAAATATCTCTCACTTATTTAAA,–,0.164,0.185,–
ACAGACGAAGGAGCCGCAAAGAAGTTATTTATGGATGAATAATCCCTCAATATAAATATCTCTCACTTATTTAAA,–,–,0.165,–
ACAGACGAAGGAGCCGCAAAGAAGTTATTAAAGAATGAATAATACCTCAATATAAATATCTCTCACTTATTTAAA,–,–,0.159,–
ACAGACGAAGGAGCCGCAAAGAAGTTATTAAGGGATCAATAATCCCTAAATATAAATATCTCTCACTTATTTAAA,–,0.551,0.657,–
CGACATGTCCCGCTTCTTTCATTAATCCGTTATCAACTGTTTTACTATATACATTTACCTTTTAAGAGGAGGAAT,0.335,–,–,–
CGACATGTCCCGCTTCTTTCATTAATCCATTATCAACTGTTTTGCTATATACATTTACCTTTTAAGAGGAGGAAT,0.224,–,–,–
CGACATGTCCCGCTTCTTTCATTAATCCGTTACGAACTGTTTTGCTATATACATTTACCTTTTAAGAGGAGGAAT,0.291,–,–,–
ACAGACGAAGGAGCCGCAAAGGAATTATTAAGGGATGAATAATCCCTCAATATAAATATCTCTCACTTATTTAAA,–,–,0.671,–
